Reference: patent US20150329642A1 (Genmab, published 2015)

B1: IgG1-1016-058 (antibody, V domains shown)
VH: EVQLVESGGGLVKPGGSLKLSCAASGFTFSDYYMYWVRQTPEKRLEWVATISDDGSYTYYPDSVKGRFTISRDNAKNNLYLQMSSLKSEDTAMYYCAREGLYYYGSGSYYNQDYWGQGTLVTVSS
VL: AIQLTQSPSSLSASVGDRVTITCRASQGLSSALAWYRQKPGKAPKLLIYDASSLESGVPSRFSGSGSGTDFTLTISSLQPEDFATYYCQQFTSYPQITFGQGTRLEIK
notes: also called IgG1-058; TH1016-058
B2: anti-c-Met HuMab 101 (IgG1) (antibody, V domains shown)
VH: QVQLVQSGGEVKKPGASVKVSCKASGYTFTRHGITWVRQAPGQGLEWMGWISADNGNTNYAQKFQDRVTMTTDTSTSTAYMELRSLRSDDTAVYFCARVFRYFDWLLPYFDYWGQGTLVTVST
VL: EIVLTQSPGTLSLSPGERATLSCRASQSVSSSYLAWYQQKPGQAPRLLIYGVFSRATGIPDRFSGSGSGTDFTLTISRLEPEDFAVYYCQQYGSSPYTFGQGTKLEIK

Assays:
cMetECDHis [1] = biological target: T1, cMetECDHis (human, UniProt P08581 25-932, limits assumed, biotinylated in the cross-block ELISA of Example 17); assay: cross-block ELISA; competitor 005
T1 construct: Expressed in HEK-293F cells; also called soluble cMetECDHis; biotinylated cMetECDHis
Method: (§1) First, the optimal coating concentrations of the tested anti-c-Met antibodies and the optimal cMetECDHis concentration were determined. Therefore, ELISA wells were coated overnight at 4° C. with anti-c-Met HuMabs serially diluted in PBS (8 μg/mL in 2-fold dilutions). Next, the ELISA wells were washed with PBST (PBS supplemented with 0.05% Tween-20 [Sigma-Aldrich, Zwijndrecht, The Netherlands]) and blocked for one hour at room temperature (RT) with PBSTC (PBST supplemented 2% [v/v] chicken serum [Gibco, Paisley, Scotland]). Subsequently, the ELISA wells were washed with PBST and incubated for one hour at RT with biotinylated cMetECDHis serially diluted in PBSTC (1 μg/mL in 2-fold dilutions). Unbound biotinylated cMetECDHis was washed away with PBST, and bound biotinylated cMetECDHis was incubated for one hour at RT with 0.1 μg/mL Streptavidin-poly-HRP (Sanquin, Amsterdam, The Netherlands) diluted in PBST.
(§2) ELISA wells were coated with anti-c-Met antibody at a sub-optimal dose as described above. After blocking of the ELISA wells, they were incubated with the predetermined concentration of biotinylated cMetECDHis in the presence of an excess of anti-c-Met antibody. The reaction was developed as described above. Residual binding was expressed as a percentage relative to the binding observed in the absence of competitor antibody.

cMetECDHis [2] = biological target: T1, cMetECDHis; assay: cross-block ELISA; competitor 006
Method: as §1, §2

cMetECDHis [3] = biological target: T1, cMetECDHis; assay: cross-block ELISA; competitor 008
Method: as §1, §2

cMetECDHis [4] = biological target: T1, cMetECDHis; assay: cross-block ELISA; competitor 024
Method: as §1, §2

cMetECDHis [5] = biological target: T1, cMetECDHis; assay: cross-block ELISA; competitor 035
Method: as §1, §2

cMetECDHis [6] = biological target: T1, cMetECDHis; assay: cross-block ELISA; competitor 045
Method: as §1, §2

cMetECDHis [7] = biological target: T1, cMetECDHis; assay: cross-block ELISA; competitor 058
Method: as §1, §2

cMetECDHis [8] = biological target: T1, cMetECDHis; assay: cross-block ELISA; competitor 062
Method: as §1, §2

cMetECDHis [9] = biological target: T1, cMetECDHis; assay: cross-block ELISA; competitor 064
Method: as §1, §2

cMetECDHis [10] = biological target: T1, cMetECDHis; assay: cross-block ELISA; competitor 068
Method: as §1, §2

cMetECDHis [11] = biological target: T1, cMetECDHis; assay: cross-block ELISA; competitor 069
Method: as §1, §2

cMetECDHis [12] = biological target: T1, cMetECDHis; assay: cross-block ELISA; competitor 098
Method: as §1, §2

cMetECDHis [13] = biological target: T1, cMetECDHis; assay: cross-block ELISA; competitor 101
Method: as §1, §2

cMetECDHis [14] = biological target: T1, cMetECDHis; assay: cross-block ELISA; competitor 181
Method: as §1, §2

cMetECDHis [15] = biological target: T1, cMetECDHis; assay: cross-block ELISA; competitor 5D5
Method: as §1, §2

cMetECDHis [16] = biological target: T1, cMetECDHis; assay: cross-block ELISA; competitor G11-HZ
Method: as §1, §2

cMetECDHis [17] = biological target: T1, cMetECDHis; assay: BLI (Octet); antibody captured, cMetECDHis in solution
Procedure, shortened: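 Bio-layer interferometry: anti-c-Met IgG immobilized via anti-human Fc sensors, exposed roughly 10 min to 10 μg/mL HEK293-made cMetECDHis, then moved to kinetics buffer for off-rate. Affinity derived with a 1:1 Langmuir model.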

Binder | residual binding, % of no competitor (cMetECDHis [1]) | residual binding, % of no competitor (cMetECDHis [2]) | residual binding, % of no competitor (cMetECDHis [3]) | residual binding, % of no competitor (cMetECDHis [4]) | residual binding, % of no competitor (cMetECDHis [5]) | residual binding, % of no competitor (cMetECDHis [6]) | residual binding, % of no competitor (cMetECDHis [7]) | residual binding, % of no competitor (cMetECDHis [8]) | residual binding, % of no competitor (cMetECDHis [9]) | residual binding, % of no competitor (cMetECDHis [10]) | residual binding, % of no competitor (cMetECDHis [11]) | residual binding, % of no competitor (cMetECDHis [12]) | residual binding, % of no competitor (cMetECDHis [13]) | residual binding, % of no competitor (cMetECDHis [14]) | residual binding, % of no competitor (cMetECDHis [15]) | residual binding, % of no competitor (cMetECDHis [16]) | Kd (cMetECDHis [17]) | koff (cMetECDHis [17]) | kon (cMetECDHis [17])
B1 | 31.4% | 43.6% | 90.2% | 109% | 90.1% | 112% | 4% | 109% | 109% | 119% | 113% | 112% | 104% | 121% | 2.8% | 81.5% | 2.7 nM | 0.00125 s⁻¹ | 464000 M⁻¹ s⁻¹
B2 | 91.5% | 89.7% | 94% | 40.5% | 96.7% | 94.7% | 93.1% | 36.9% | 37.4% | 45.9% | 9.5% | 9.7% | 3.7% | 41.9% | 97.2% | 98.3% | 1.27 nM | 0.000214 s⁻¹ | 169000 M⁻¹ s⁻¹
